In article PMC314469, “Protein Interaction Networks by Proteome Peptide Scanning” (PLoS Biology, 2004) one finds normalised SPOT signal, Boehringer light units (BLU); mean over the file's lines of this peptide data, which are given here for 38 molecules.

T1: amphyphisin SH3 (AMPH_HUMAN), P49418
T1 chain: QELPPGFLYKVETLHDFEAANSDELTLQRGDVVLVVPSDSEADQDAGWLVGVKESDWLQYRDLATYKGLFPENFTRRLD

The target in one test is T1, amphyphisin SH3 (AMPH_HUMAN), P49418. Put plainly: SPOT array.
As to SLKRPKRPLFNFAL [Q96RW7 70-83], the normalised SPOT signal, Boehringer light units (BLU); mean over the file's lines of this peptide is 169.

In turn, SLKIFRRPRKLFMQ [Q99776 220-233] showed a normalised SPOT signal, Boehringer light units (BLU); mean over the file's lines of this peptide of 88.1.

Take SARGPLRPPVRSPA [P30084 9-23]: the normalised SPOT signal, Boehringer light units (BLU); mean over the file's lines of this peptide is 3810.

For the molecule SGLRLRRPRVSSTE [Q9H3P9 250-263], the normalised SPOT signal, Boehringer light units (BLU); mean over the file's lines of this peptide is 67.4.

As to SGGRPLRPPHPVAK [O76081 141-155], the normalised SPOT signal, Boehringer light units (BLU); mean over the file's lines of this peptide turned out to be 718.

SLASPRRPLLSDFA [Q96RJ6 21-34]: the normalised SPOT signal, Boehringer light units (BLU); mean over the file's lines of this peptide stood at 78.6.

Turning to SGNSLKRPDTTESL [Q96SU4 326-339], the normalised SPOT signal, Boehringer light units (BLU); mean over the file's lines of this peptide was found to be 24.4.

SGPDLRRPPTPAPW [Q96IB8 451-464]: the normalised SPOT signal, Boehringer light units (BLU); mean over the file's lines of this peptide was determined as 39.4.

On to SIWDPRRPLNTTEG [P09848 409-422], for which the normalised SPOT signal, Boehringer light units (BLU); mean over the file's lines of this peptide turned out to be 10.9.

Consider AAVAPSRPGREPQA [Q9ULI4 780-793], for which the normalised SPOT signal, Boehringer light units (BLU); mean over the file's lines of this peptide is 2520.

On to SGSRPRKPPPRKHT [Q9P189 81-95], for which the normalised SPOT signal, Boehringer light units (BLU); mean over the file's lines of this peptide worked out at 3680.

In turn, SGTALLRPLRPKPP [Q92766 106-119] gave a normalised SPOT signal, Boehringer light units (BLU); mean over the file's lines of this peptide of 147.

The molecule SKTPPQRPPPQGSL gave a normalised SPOT signal, Boehringer light units (BLU); mean over the file's lines of this peptide of 193.

SINLLSRPERGWEG [Q14801 17-30] yielded a normalised SPOT signal, Boehringer light units (BLU); mean over the file's lines of this peptide of 0.

The molecule SKTPPQRPPPQGGP yielded a normalised SPOT signal, Boehringer light units (BLU); mean over the file's lines of this peptide of 127.

In turn, SIHPPGRPPAVRGP [P50570 773-787] displayed a normalised SPOT signal, Boehringer light units (BLU); mean over the file's lines of this peptide of 340.

SGVLLVRPSRLSSS [P11362 439-452] displayed a normalised SPOT signal, Boehringer light units (BLU); mean over the file's lines of this peptide of 7990.

Molecule SHHPPDRPPDPFST [Q8TA97 483-497] returned a normalised SPOT signal, Boehringer light units (BLU); mean over the file's lines of this peptide of 30.4.

SGPGPARPARARPR [P53539 130-143]: the normalised SPOT signal, Boehringer light units (BLU); mean over the file's lines of this peptide turned out to be 14900.

For SIVEFFRPPKEVHL [Q96RL7 600-613], the normalised SPOT signal, Boehringer light units (BLU); mean over the file's lines of this peptide is 164.

In turn, SGGRPIKPPKKDLE [Q15059 280-294] yielded a normalised SPOT signal, Boehringer light units (BLU); mean over the file's lines of this peptide of 48.5.

Take SGMAFPRPKRPAPA [Q9BQ84 245-258]: the normalised SPOT signal, Boehringer light units (BLU); mean over the file's lines of this peptide worked out at 1310.

The molecule SLLDFIRPLKISSD [Q9UPM8 1026-1039] had a normalised SPOT signal, Boehringer light units (BLU); mean over the file's lines of this peptide of 219.

SLEVIRRPETKVLI [Q9BYK8 558-571] yielded a normalised SPOT signal, Boehringer light units (BLU); mean over the file's lines of this peptide of 22.1.

For the molecule SLSFIARPGKVSQL [P21128 321-334], the normalised SPOT signal, Boehringer light units (BLU); mean over the file's lines of this peptide came out at 152.

Regarding SISFPTRPPLQAQI [Q8TDT3 61-75], the normalised SPOT signal, Boehringer light units (BLU); mean over the file's lines of this peptide turned out to be 61.2.

SGTPIRRPMGQMKP [P16930 169-182]: the normalised SPOT signal, Boehringer light units (BLU); mean over the file's lines of this peptide came to 3.3.

Molecule SLALPRRPQNRDSI [Q9HCG4 261-274] returned a normalised SPOT signal, Boehringer light units (BLU); mean over the file's lines of this peptide of 96.2.

In the case of SALSLRRPHSGWSA [O75097 1019-1032], the normalised SPOT signal, Boehringer light units (BLU); mean over the file's lines of this peptide was 27.1.

SGLAPKRPGPAGEL [Q16849 127-140] showed a normalised SPOT signal, Boehringer light units (BLU); mean over the file's lines of this peptide of 22.9.

SAGPPSRPQRPFSA [O43257 105-118] came in with a normalised SPOT signal, Boehringer light units (BLU); mean over the file's lines of this peptide of 4230.

For the molecule SGSKLKRPTPTFHS [Q9UPN3 5307-5320], the normalised SPOT signal, Boehringer light units (BLU); mean over the file's lines of this peptide was determined as 41.6.

SHGSPRRPGPEPGA [O95180 532-545] showed a normalised SPOT signal, Boehringer light units (BLU); mean over the file's lines of this peptide of 44.7.

SKASLSRPGRRPLG [Q9C0H4 580-593] gave a normalised SPOT signal, Boehringer light units (BLU); mean over the file's lines of this peptide of 226.

SLMTPRRPLSTSEK [Q9H5L8 147-160] registered a normalised SPOT signal, Boehringer light units (BLU); mean over the file's lines of this peptide of 70.

In turn, SLHGPRRPQPGASG [O95428 745-758] showed a normalised SPOT signal, Boehringer light units (BLU); mean over the file's lines of this peptide of 33.5.

Regarding SGKGLRRPHSTVEE [Q9P2L5 16-29], the normalised SPOT signal, Boehringer light units (BLU); mean over the file's lines of this peptide was determined as 44.8.

Consider SITQLRRPSQLLYP [Q96AN7 126-139], for which the normalised SPOT signal, Boehringer light units (BLU); mean over the file's lines of this peptide amounted to 9.2.

The target of a further test is endophilin SH3 (SH3G2_HUMAN), Q99962. Put plainly: SPOT array.
SLKRPKRPLFNFAL [Q96RW7 70-83] returned a normalised SPOT signal, Boehringer light units (BLU); mean over the file's lines of this peptide of 2170.

For SLKIFRRPRKLFMQ [Q99776 220-233], the normalised SPOT signal, Boehringer light units (BLU); mean over the file's lines of this peptide is 74.5.

The molecule SARGPLRPPVRSPA [P30084 9-23] registered a normalised SPOT signal, Boehringer light units (BLU); mean over the file's lines of this peptide of 1950.

Molecule SGLRLRRPRVSSTE [Q9H3P9 250-263] yielded a normalised SPOT signal, Boehringer light units (BLU); mean over the file's lines of this peptide of 44.7.

Molecule SGGRPLRPPHPVAK [O76081 141-155] returned a normalised SPOT signal, Boehringer light units (BLU); mean over the file's lines of this peptide of 6230.

SLASPRRPLLSDFA [Q96RJ6 21-34] displayed a normalised SPOT signal, Boehringer light units (BLU); mean over the file's lines of this peptide of 1690.

In the case of SGNSLKRPDTTESL [Q96SU4 326-339], the normalised SPOT signal, Boehringer light units (BLU); mean over the file's lines of this peptide amounted to 18.9.

The molecule SGPDLRRPPTPAPW [Q96IB8 451-464] yielded a normalised SPOT signal, Boehringer light units (BLU); mean over the file's lines of this peptide of 39.1.

SIWDPRRPLNTTEG [P09848 409-422] gave a normalised SPOT signal, Boehringer light units (BLU); mean over the file's lines of this peptide of 41.8.

As for AAVAPSRPGREPQA [Q9ULI4 780-793], the normalised SPOT signal, Boehringer light units (BLU); mean over the file's lines of this peptide turned out to be 418.

Take SGSRPRKPPPRKHT [Q9P189 81-95]: the normalised SPOT signal, Boehringer light units (BLU); mean over the file's lines of this peptide was determined as 3720.

SGTALLRPLRPKPP [Q92766 106-119] came in with a normalised SPOT signal, Boehringer light units (BLU); mean over the file's lines of this peptide of 153.

Take SKTPPQRPPPQGSL: the normalised SPOT signal, Boehringer light units (BLU); mean over the file's lines of this peptide was found to be 2380.

Take SINLLSRPERGWEG [Q14801 17-30]: the normalised SPOT signal, Boehringer light units (BLU); mean over the file's lines of this peptide turned out to be 97.2.

SKTPPQRPPPQGGP yielded a normalised SPOT signal, Boehringer light units (BLU); mean over the file's lines of this peptide of 1450.

SIHPPGRPPAVRGP [P50570 773-787] gave a normalised SPOT signal, Boehringer light units (BLU); mean over the file's lines of this peptide of 2730.

With SGVLLVRPSRLSSS [P11362 439-452], the normalised SPOT signal, Boehringer light units (BLU); mean over the file's lines of this peptide was determined as 210.

Molecule SHHPPDRPPDPFST [Q8TA97 483-497] displayed a normalised SPOT signal, Boehringer light units (BLU); mean over the file's lines of this peptide of 1390.

SGPGPARPARARPR [P53539 130-143]: the normalised SPOT signal, Boehringer light units (BLU); mean over the file's lines of this peptide worked out at 17200.

Take SIVEFFRPPKEVHL [Q96RL7 600-613]: the normalised SPOT signal, Boehringer light units (BLU); mean over the file's lines of this peptide turned out to be 98.5.

Consider SGGRPIKPPKKDLE [Q15059 280-294], for which the normalised SPOT signal, Boehringer light units (BLU); mean over the file's lines of this peptide came to 66.

For the molecule SGMAFPRPKRPAPA [Q9BQ84 245-258], the normalised SPOT signal, Boehringer light units (BLU); mean over the file's lines of this peptide turned out to be 629.

With SLLDFIRPLKISSD [Q9UPM8 1026-1039], the normalised SPOT signal, Boehringer light units (BLU); mean over the file's lines of this peptide is 0.

In turn, SLEVIRRPETKVLI [Q9BYK8 558-571] displayed a normalised SPOT signal, Boehringer light units (BLU); mean over the file's lines of this peptide of 65.4.

In the case of SLSFIARPGKVSQL [P21128 321-334], the normalised SPOT signal, Boehringer light units (BLU); mean over the file's lines of this peptide was found to be 146.

For the molecule SISFPTRPPLQAQI [Q8TDT3 61-75], the normalised SPOT signal, Boehringer light units (BLU); mean over the file's lines of this peptide came out at 162.

Molecule SGTPIRRPMGQMKP [P16930 169-182] came in with a normalised SPOT signal, Boehringer light units (BLU); mean over the file's lines of this peptide of 148.

The molecule SLALPRRPQNRDSI [Q9HCG4 261-274] yielded a normalised SPOT signal, Boehringer light units (BLU); mean over the file's lines of this peptide of 866.

SALSLRRPHSGWSA [O75097 1019-1032] registered a normalised SPOT signal, Boehringer light units (BLU); mean over the file's lines of this peptide of 47.4.

SGLAPKRPGPAGEL [Q16849 127-140] came in with a normalised SPOT signal, Boehringer light units (BLU); mean over the file's lines of this peptide of 11.3.

SAGPPSRPQRPFSA [O43257 105-118] registered a normalised SPOT signal, Boehringer light units (BLU); mean over the file's lines of this peptide of 2420.

As to SGSKLKRPTPTFHS [Q9UPN3 5307-5320], the normalised SPOT signal, Boehringer light units (BLU); mean over the file's lines of this peptide is 40.3.

Take SHGSPRRPGPEPGA [O95180 532-545]: the normalised SPOT signal, Boehringer light units (BLU); mean over the file's lines of this peptide is 31.

SKASLSRPGRRPLG [Q9C0H4 580-593] displayed a normalised SPOT signal, Boehringer light units (BLU); mean over the file's lines of this peptide of 53.5.

For SLMTPRRPLSTSEK [Q9H5L8 147-160], the normalised SPOT signal, Boehringer light units (BLU); mean over the file's lines of this peptide was 1480.

For SLHGPRRPQPGASG [O95428 745-758], the normalised SPOT signal, Boehringer light units (BLU); mean over the file's lines of this peptide was determined as 256.

Take SGKGLRRPHSTVEE [Q9P2L5 16-29]: the normalised SPOT signal, Boehringer light units (BLU); mean over the file's lines of this peptide was found to be 17.2.

In turn, SITQLRRPSQLLYP [Q96AN7 126-139] showed a normalised SPOT signal, Boehringer light units (BLU); mean over the file's lines of this peptide of 36.3.
